# Literature values, collected in article PMC5830908.
# Read-outs that look alike come from different tables or passages of the source.
# What was measured:
# [1] = target: K-Ras (Homo sapiens) (UniProt P01116)
# [2] = target: K-Ras (Homo sapiens) (UniProt P01116); remark: listed apart in the source
substance,measurement,setting,value
KRpep-2,Kd,[1],51 nM
same,Kd,[2],700 nM
